The target in test [1] is T1, OX40R on mouse CD4+ T-cells (mouse, UniProt P47741 20-272).
T1 sequence (looked up): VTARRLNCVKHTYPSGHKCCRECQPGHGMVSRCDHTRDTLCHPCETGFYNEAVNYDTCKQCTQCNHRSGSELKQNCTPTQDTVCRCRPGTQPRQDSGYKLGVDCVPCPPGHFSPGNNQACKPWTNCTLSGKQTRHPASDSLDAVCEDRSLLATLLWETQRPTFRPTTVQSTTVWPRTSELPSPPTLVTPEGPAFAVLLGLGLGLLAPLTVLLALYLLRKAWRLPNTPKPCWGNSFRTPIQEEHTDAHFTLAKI
Nature of the test: cell-based or functional assay.

Test [2] addresses T2, mCTLA-4-His (Life Technologies) (mouse, UniProt P09793 36-162, limits assumed).
T2 construct: Bought reagent coated on ELISA plates; also called CTLA-4-coated plates; not shown: His tag
The experiment in a line: ELISA, HeLa supernatant on mCTLA-4-His-coated plates, HRP-goat anti-mouse IgG Fc detection. As to the method: The following mRNAs encoding anti-CTLA-4 antibody heavy and light chains (HC and LC mRNAs) were designed and assayed for expression by measuring both CTLA-4-bound antibody and total IgG produced (FIG. 1): (1) 9D9 VH:mIgG2a (IgG2a^a allele) plus 9D9 VL:mIgGk; and (2) 9D9 VH:mIgG2b plus 9D9 VL:mIgGk. HeLa cells were transfected in 6-well plates with mRNA formulated in Lipofectamine 2000. Cell supernatants were harvested at 18 hours post transfection. Supernatants were assayed for binding to CTLA-4-coated plates (mCTLA-4-His (Life Technologies)) and detection was with HRP-Goat anti-mouse IgG Fc, 1:10000 (JIR). Purified 9D9 antibody (BioXcell) was used for the standard curve in the CTLA-4-binding ELISA. The Mouse IgG total ELISA Ready-SET-Go® assay (eBioscience) was used for quantitating total mouse IgG, with a mouse IgG internal standard.
(ELISA stands for enzyme-linked immunosorbent assay.)

B1: murine OX40L polypeptide expressed from mOX40L_miR122 on B16F10 cells (ligand)
chain: MEGEGVQPLDENLENGSRPRFKWKKTLRLVVSGIKGAGMLLCFIYVCLQLSSSPAKDPPIQRLRGAVTRCEDGQLFISSYKNEYQTMEVQNNSVVIKCDGLYIIYLKGSFFQEVKIDLHFREDHNPISIPMLNDGRRIVFTVVASLAFKDKVYLTVNAPDTLCEHLQINDGELIVVQLTPGYCAPEGSYHSTVNQVPL
Turning to B1, in test [1], the “mouse IL-2 production by CD4+ T-cells co-cultured with OX40L-expressing B16F10 cells (IL-2 ELISA), against mock-treated or non-translated mRNA control” value was around 2 fold.

B2: 9D9 IgG2a antibody (9D9 VH:mIgG2a (IgG2a^a allele) plus 9D9 VL:mIgGk), mRNA-encoded (antibody)
heavy: EAKLQESGPVLVKPGASVKMSCKASGYTFTDYYMNWVKQSHGKSLEWIGVINPYNGDTSYNQKFKGKATLTVDKSSSTAYMELNSLTSEDSAVYYCARYYGSWFAYWGQGTLITVSTAKTTAPSVYPLAPVCGDTTGSSVTLGCLVKGYFPEPVTLTWNSGSLSSGVHTFPAVLQSDLYTLSSSVTVTSSTWPSQSITCNVAHPASSTKVDKKIEPRGPTIKPCPPCKCPAPNLLGGPSVFIFPPKIKDVLMISLSPIVTCVVVDVSEDDPDVQISWFVNNVEVHTAQTQTHREDYNSTLRVVSALPIQHQDWMSGKEFKCKVNNKDLPAPIERTISKPKGSVRAPQVYVLPPPEEEMTKKQVTLTCMVTDFMPEDIYVEWTNNGKTELNYKNTEPVLDSDGSYFMYSKLRVEKKNWVERNSYSCSVVHEGLHNHHTTKSFSRTPGK
light: DIVMTQTTLSLPVSLGDQASISCRSSQSIVHSNGNTYLEWYLQKPGQSPKLLIYKVSNRFSGVPDRFSGSGSGTDFTLKISRVEAEDLGVYYCFQGSHVPYTFGGGTKLEIKRADAAPTVSIFPPSSEQLTSGGASVVCFLNNFYPKDINVKWKIDGSERQNGVLNSWTDQDSKDSTYSMSSTLTLTKDEYERHNSYTCEATHKTSTSPIVKSFNRNEC
notes: Full heavy and light chains expressed from mRNA in HeLa cells, tested as cell supernatant; The entries are whole ORFs and may include a signal peptide; also called HC-2Aa:LC; 9D9 2a
As to B2, the binding result in test [2] is listed as “binds”.

B3: 9D9 IgG2b antibody (9D9 VH:mIgG2b plus 9D9 VL:mIgGk), mRNA-encoded (antibody)
heavy: EAKLQESGPVLVKPGASVKMSCKASGYTFTDYYMNWVKQSHGKSLEWIGVINPYNGDTSYNQKFKGKATLTVDKSSSTAYMELNSLTSEDSAVYYCARYYGSWFAYWGQGTLITVSTAKTTPPSVYPLAPGCGDTTGSSVTLGCLVKGYFPESVTVTWNSGSLSSSVHTFPALLQSGLYTMSSSVTVPSSTWPSQTVTCSVAHPASSTTVDKKLEPSGPISTINPCPPCKECHKCPAPNLEGGPSVFIFPPNIKDVLMISLTPKVTCVVVDVSEDDPDVQISWFVNNVEVHTAQTQTHREDYNSTIRVVSTLPIQHQDWMSGKEFKCKVNNKDLPSPIERTISKIKGLVRAPQVYILPPPAEQLSRKDVSLTCLVVGFNPGDISVEWTSNGHTEENYKDTAPVLDSDGSYFIYSKLNMKTSKWEKTDSFSCNVRHEGLKNYYLKKTISRSPGK
light: B2 light
notes: Full heavy and light chains expressed from mRNA in HeLa cells, tested as cell supernatant; The entries are whole ORFs and may include a signal peptide; also called HC-2B:LC; 9D9 2b
For B3, the binding result in test [2] was “binds”.

For the origin of these results see patent publication US20180369374A1 (published 2018).
